Substitutions are numbered along the chain they refer to.
Legend:
[1] = target: T1, human IGF-II (human, UniProt P01344 25-91); test: ELISA, Fab on hIGF-II
T1 construct: mature; It was biotinylated for the flow cytometry assays; also called hIGF-II; insulin-like growth factor II

[2] = target: T1, human IGF-II; test: ELISA on hIGF-II
Procedure: (§1) ELISA was performed as described previously (Chen et al., 2008, supra). Bound Fabs and eAds were detected by HRP-conjugated mouse anti-FLAG tag antibody. The antibody-Fc fusion proteins binding to IGF-II directly coated on 96-well plates were detected by HRP-conjugated goat anti-human IgG (Fc-specific) antibody. […] The half-maximal binding (EC₅₀) was calculated by fitting the data to the Langmuir adsorption isotherm.

[3] = target: T2, mouse IGF-II (mouse, UniProt P09535 25-91); test: ELISA-based competition assay
T2 construct: also called mIGF-II

[4] = target: T1, human IGF-II; test: phage library panned on hIGF-II, semELISA screening
Procedure: The PCR products were gel-purified, digested with SfiI, and gel-purified again. The purified fragments were then cloned into pComb3X linearized by SfiI. A phage library was prepared by electroporation of Escherichia coli (E. coli) strain TG1 electroporation-competent cells (Stratagene, La Jolla, Calif.) with desalted and concentrated ligation, as described previously (Chen et al., 2008, J Mol Biol 382:779-89).

[5] = target: T1, human IGF-II; test: ELISA, eAd on hIGF-II
Procedure: as §1

[6] = target: T1, human IGF-II; test: ELISA, hIGF-II coated on the plate
Procedure: The half-maximal binding (EC₅₀) was calculated by fitting the data to the Langmuir adsorption isotherm.
as §1

[7] = target: T1, human IGF-II; test: SPR, Biacore X100, antibody amine-coupled to a CM5 chip, hIGF-II as analyte, monovalent binding model
Procedure: ELISA was performed by coating IGF-II on 96-well plates. Bound antibodies were detected by HRP-conjugated goat anti-human IgG (Fc-specific) antibody. SPR analysis was performed on Biacore X100 by according to the manufacturer's instructions.
The binding kinetics of the antibodies was assessed by SPR analysis on Biacore X100 (GE Healthcare) according to the manufacturer's instructions. Briefly, antibodies were diluted in sodium acetate (pH 5.0) and immobilized directly onto a CM5 sensor chip with standard amine coupling method. The reference cell was injected with N-hydroxysuccinimide/1-ethyl-3-(3-dimethyaminopropy) carbodiimide and ethanolamine without injection of IGF-II. IGF-II was diluted with running buffer HBS-EP (100 mM HEPES, pH 7.4, 1.5 M NaCl, 30 mM EDTA, 0.5% surfactant 20). […] The kinetic constants were calculated from the sensorgrams fitted with the monovalent binding model of the BiacoreX100 Evaluation software 2.0.

T1 sequence (P01344 25-91): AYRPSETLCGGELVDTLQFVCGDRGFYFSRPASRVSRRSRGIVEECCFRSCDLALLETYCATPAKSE
T2 sequence (P09535 25-91 limits assumed): as the sequence (P01344 25-91) above, with R3G, S5G, G22S, A32S, V35A, S36N counted along it

B1: Fab m610.27 (Fab, V domains shown)
VH: QVQLVQSGAEVKKPGASVKVSCKASGYTFTSYYMHWVRQAPGQGLEWMGIINPSGGSTSYAQKFQGRVTMTRDTSTSTVYMELSRLRSDDTAVYYCARDVQWLAYGMDVWGQGTTVTVSS
VL: DIQMTQSPSSLSASVGDRVTITCRASQSISSYLNWYQQKPGRAPDLLINAASSLQSGVPSRFSGSGSGTDFTLTISSLQPEDFATYFCQQSYSLPFTFGGGTKVEIKG
notes: Human Fab expressed in E. coli HB2151; also called m610.27 in Fab format
EC50 [1]: 5 nM

B2: m610 (Fab, V domains shown)
VH: B1 VH
VL: not shown
notes: also called Fab m610
EC50 [2]: 20 nM | binding result [3]: binds

B3: eAd m630.9 (VHH)
VHH: QVQLVQSGGGLVQPGGSLRLSCAASSFDFDYYEMSWVRQAPGQRLEWVAYISKSGGTKMYADSVKGRFTISRDNSKNTLYLQMNTLRAEDTAMYYCAKDRATCSGGRCYSFYYGMDVWGQGTLVTVSS
notes: Mutant of m630 selected from the random mutagenesis library panned on hIGF-II; not shown: C-terminal hexahistidine tag, and a FLAG tag used for detection
binding result [4]: binds

B4: eAd m630.1 (VHH)
VHH: B3 VHH with K76R, S104R, R107S, Y113H
notes: as for B3
binding result [4]: binds

B5: eAd m630 (VHH)
VHH: B3 VHH with R107S
notes: Human engineered antibody domain (a single VH domain) expressed in E. coli HB2151; not shown: C-terminal hexahistidine tag, and a FLAG tag used for detection
binding result [3]: binds | EC50 [5]: 50 nM

B6: eAd m630.3 (VHH)
VHH: B3 VHH with S104R
notes: not shown: C-terminal hexahistidine tag, and a FLAG tag used for detection
EC50 [5]: 2 nM | fold lower EC50 than m630 [5]: 25 fold

B7: eAd m630.4 (VHH)
VHH: B3 VHH with D30G
notes: as for B3
binding result [4]: binds

B8: m660 (bispecific antibody, human IgG1, kappa)
heavy: not shown
light: QVQLVQSGGGLVQPGGSLRLSCAASSFDFDYYEMSWVRQAPGQRLEWVAYISKSGGTKMYADSVKGRFTISRDNSKNTLYLQMNTLRAEDTAMYYCAKDRATCRGGRCYSFYYGMDVWGQGTLVTVSSGGGGSGGGGSGGGGSRTVAAPSVFIFPPSDEQLKSGTASVVCLLNNFYPREAKVQWKVDNALQSGNSQESVTEQDSKDSTYSLSSTLTLSKADYEKHKVYACEVTHQGLSSPVTKSFNRGEC
notes: Produced in 293 free style cells; also called bispecific antibody m660
fold lower EC50 than IgG1 m610.7 [6]: 3 fold | Kd [7]: 0.136 nM

From US20140271646A1 (UNITED STATES OF AMERICA AS REPRESENTED BY THE SECRETARY …, published 2014)
